The target of the data set is human FX, P00742.
Sequence of human FX, P00742 (P00742 whole entry, looked up): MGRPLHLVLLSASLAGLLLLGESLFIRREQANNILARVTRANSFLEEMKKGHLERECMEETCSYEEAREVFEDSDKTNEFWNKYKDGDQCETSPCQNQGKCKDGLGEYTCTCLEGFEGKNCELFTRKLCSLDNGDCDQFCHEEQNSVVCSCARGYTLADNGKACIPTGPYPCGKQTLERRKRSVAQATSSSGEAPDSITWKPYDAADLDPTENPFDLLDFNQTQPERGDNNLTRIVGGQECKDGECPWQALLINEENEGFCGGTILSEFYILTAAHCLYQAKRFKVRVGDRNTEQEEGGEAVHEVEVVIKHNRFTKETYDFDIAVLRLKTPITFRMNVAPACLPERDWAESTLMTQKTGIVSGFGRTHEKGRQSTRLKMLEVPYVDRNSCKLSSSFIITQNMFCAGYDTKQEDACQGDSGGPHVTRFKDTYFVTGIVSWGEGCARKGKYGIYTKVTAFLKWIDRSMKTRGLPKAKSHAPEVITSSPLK

B1: wildtype FVIIa (protein)
chain 1: ANAFLEELRPGSLERECKEEQCSFEEAREIFKDAERTKLFWISYSDGDQCASSPCQNGGSCKDQLQSYICFCLPAFEGRNCETHKDDQLICVNENGGCEQYCSDHTGTKRSCRCHEGYSLLADGVSCTPTVEYPCGKIPILEKRNASKPQGR
chain 2: IVGGKVCPKGECPWQVLLLVNGAQLCGGTLINTIWVVSAAHCFDKIKNWRNLIAVLGEHDLSEHDGDEQSRRVAQVIIPSTYVPGTTNHDIALLRLHQPVVLTDHVVPLCLPERTFSERTLAFVRFSLVSGWGQLLDRGATALELMVLNVPRLMTQDCLQQSRKVGDSPNITEYMFCAGYSDGSKDSCKGDSGGPHATHYRGTWYLTGIVSWGQGCATVGHFGVYTRVSQYIEWLQKLMRSEPRPGVLLRAPFP
Consider B1, for which the Km, FX activation by relipidated TF•FVIIa (0.4 nM relipidated TF, 1 nM FVIIa) came to 0.13 µM; the Vmax, FX activation by relipidated TF•FVIIa (0.4 nM relipidated TF, 1 nM FVIIa) was 600 mOD405/min; the Vmax/Km, FX activation by relipidated TF•FVIIa (mOD405/min/nM) is 4.6.
